Data from the RNAGym collection of RNA variant scans (doi:10.7554/elife.90254).

B1: LINE1-full (parent)
chain: UACGUAGGUGGUUUUCCCCUGAUAGUGCUAAGGGGGCCUGGAAGUUUGGACUGGGCAGAGCUCAACACAGCGUGGCAAAGUGGCUGUGGCUAGACUGCCUCUCUGGAUUCCUCGUCACUCAGCAGGGCAUCUCUGAGAGAAAUGCC

Variants of: B1
Assay: self-cleavage, relative activity (ratio to wild type); higher = more cleavage; in vitro, sequencing; the parent is a self-cleaving ribozyme

Compared with U46A A129U, U46C G105A is higher in self-cleavage: 0.78 for the first, 1.16 for the second.

First: U45G G88A
Second: U45C G80A
The self-cleavage of the first is lower: 0.06 for the first, 2.16 for the second.

Compared with U45A A59U, U45A A59G is lower in self-cleavage: 0.6 for the first, 0.05 for the second.

Going from U45A A59C to U45A U115C, the self-cleavage rises from 1.01 to 1.51.

Going from U45A U115G to U45A A124U, the self-cleavage rises from 1.17 to 1.39.

First: U45C U46A
Second: U45C U46C
The self-cleavage of the first is lower: 0.74 for the first, 1.84 for the second.

First: U45C U46G
Second: U46C G55A
The self-cleavage of the first is higher: 1.37 for the first, 0.59 for the second.

Going from U45C C56U to U45C C56A, the self-cleavage falls from 0.12 to 0.06.

First: U45C C71A
Second: U45C C71U
The self-cleavage of the first is lower: 0.15 for the first, 0.98 for the second.

First: G44A U96C
Second: G44A A59G
The self-cleavage of the first is higher: 0.13 for the first, 0.03 for the second.

Going from U45G U119G to U45C U47A, the self-cleavage rises from 0.44 to 1.3.

Going from U46G A69G to U46G A69U, the self-cleavage rises from 0 to 0.1.

Going from U46C A142G to U46C U52A, the self-cleavage rises from 1.35 to 1.45.

First: U45C G106U
Second: U45C G106A
The self-cleavage of the first is lower: 1.17 for the first, 2 for the second.

First: U46A G75U
Second: U46A G75A
The self-cleavage of the first is lower: 0.84 for the first, 0.9 for the second.

First: U46A U132C
Second: G44C U45C
The self-cleavage of the first is higher: 1.32 for the first, 1.02 for the second.

Going from U46A U96C to U45C U108C, the self-cleavage rises from 0.19 to 2.11.

First: U45C U108A
Second: U45C A67G
The self-cleavage of the first is higher: 1.15 for the first, 1.08 for the second.

First: U45C A69G
Second: U45C A69U
The self-cleavage of the first is higher: 0.31 for the first, 0.03 for the second.

First: U45A C71U
Second: U46C A136U
The self-cleavage of the first is lower: 0.08 for the first, 1.44 for the second.

First: U46C U108G
Second: U46C U108A
The self-cleavage of the first is lower: 1.15 for the first, 1.4 for the second.

First: U46C U108C
Second: U46A A121U
The self-cleavage of the first is higher: 1.69 for the first, 1.43 for the second.

Going from U46C C51A to U45G A77U, the self-cleavage falls from 1.52 to 1.15.

Compared with U45G A136G, U46C A121U is higher in self-cleavage: 0.94 for the first, 1.25 for the second.

Going from U46G A129G to U45C U132A, the self-cleavage rises from 1.93 to 1.96.

Compared with U45C U132C, U46C C61U is lower in self-cleavage: 1.51 for the first, 0.04 for the second.

Going from U46G G72A to U46G U112A, the self-cleavage rises from 1.07 to 1.47.

Compared with U45A G72A, U46C G82A is higher in self-cleavage: 0.95 for the first, 2.42 for the second.

Compared with U45A A64G, U46A A79U is higher in self-cleavage: 0.57 for the first, 2.16 for the second.

Compared with U46A A79G, U47A A69G is lower in self-cleavage: 1.06 for the first, 0.52 for the second.

Compared with U45C U96A, U46G U132A is higher in self-cleavage: 0.07 for the first, 1.4 for the second.

First: U45A U81C
Second: U45C U143C
The self-cleavage of the first is higher: 1.92 for the first, 1.7 for the second.

First: U45C U143A
Second: U45A A92C
The self-cleavage of the first is higher: 1.39 for the first, 0.14 for the second.

Going from U46A C71A to U46A U62C, the self-cleavage falls from 0.25 to 0.05.

Compared with U46A A57U, U46A A57G is higher in self-cleavage: 0.08 for the first, 0.54 for the second.

Going from U46C U119A to U46C U119C, the self-cleavage falls from 1.26 to 1.13.

Going from U46C U119G to U46A U143C, the self-cleavage rises from 1.02 to 1.38.

First: U46C C56A
Second: U45G U62C
The self-cleavage of the first is higher: 0.28 for the first, 0.02 for the second.

Compared with U46G A78G, U46C A117C is higher in self-cleavage: 0.6 for the first, 2.44 for the second.

U47A A67U and U45C U85A are the same in self-cleavage: 0.12 for the first, 0.12 for the second.

Going from U45C U85G to U45C G127A, the self-cleavage rises from 0.26 to 0.55.

Compared with U46C G126A, U46C U134A is higher in self-cleavage: 0.59 for the first, 1.1 for the second.

Compared with U46C U134C, U45G G106C is lower in self-cleavage: 1.53 for the first, 0.92 for the second.

Compared with U45G G106U, U45C G74U is higher in self-cleavage: 0.64 for the first, 1.35 for the second.

First: U45C G54A
Second: U45C U112G
The self-cleavage of the first is lower: 0.43 for the first, 1.31 for the second.

Compared with U46A A64C, U46C U102A is higher in self-cleavage: 0.24 for the first, 1.09 for the second.

First: U46C U102C
Second: U46C U115A
The self-cleavage of the first is lower: 1.13 for the first, 1.58 for the second.

Compared with U46C U115G, U46C A77C is higher in self-cleavage: 0 for the first, 1.01 for the second.

Compared with U45A U102A, U45A U102C is higher in self-cleavage: 1.36 for the first, 1.45 for the second.

Going from U45A U102G to U45A A141U, the self-cleavage rises from 0 to 1.01.

First: U46A U130G
Second: U45A C99U
The self-cleavage of the first is higher: 1.39 for the first, 0.59 for the second.

First: U46A A141U
Second: U46A A141G
The self-cleavage of the first is lower: 1.01 for the first, 1.36 for the second.

First: U46A U91C
Second: U45G C68U
The self-cleavage of the first is higher: 0.63 for the first, 0.12 for the second.

Going from U46C U100C to U45C A78U, the self-cleavage falls from 1.89 to 1.43.

Going from G44C A117U to U45G U87A, the self-cleavage falls from 1.53 to 0.07.

First: U45A U47A
Second: U45A U47C
The self-cleavage of the first is lower: 1.17 for the first, 1.45 for the second.

First: U45A U46G
Second: U46C A67U
The self-cleavage of the first is higher: 1.29 for the first, 0.12 for the second.

Compared with U45C C51U, U45C C51A is lower in self-cleavage: 1.58 for the first, 0.2 for the second.

Going from U45A U87C to U45A A79G, the self-cleavage rises from 0.24 to 1.39.

Going from U46C A57C to U46C A57G, the self-cleavage rises from 0.31 to 1.04.

Going from G44U U115A to U45C G89A, the self-cleavage falls from 1.17 to 0.01.

Going from U46A A142G to U45G U73A, the self-cleavage rises from 1.45 to 1.49.

First: U46A A67U
Second: U46A A67G
The self-cleavage of the first is lower: 0.1 for the first, 0.22 for the second.

Compared with U45C U109A, U46C C111U is lower in self-cleavage: 1.5 for the first, 1.24 for the second.

Going from U46C C111A to U46A G55A, the self-cleavage falls from 1.17 to 0.24.

First: U45G A141G
Second: U46C G48C
The self-cleavage of the first is higher: 1.32 for the first, 1.2 for the second.

Compared with U46C G48U, U46A A136G is lower in self-cleavage: 1.61 for the first, 1.48 for the second.

First: G44C A64G
Second: G44U A78G
The self-cleavage of the first is lower: 0.24 for the first, 1.68 for the second.

First: U46C G139U
Second: G44A U100A
The self-cleavage of the first is higher: 1.7 for the first, 0.85 for the second.

Going from U45C A64U to U46A A107G, the self-cleavage rises from 0.29 to 1.43.

Compared with U46A A107U, U46C U130A is higher in self-cleavage: 1.36 for the first, 1.68 for the second.

Compared with U46C U130C, U45C A59U is lower in self-cleavage: 1.54 for the first, 1.04 for the second.

First: U45C A59C
Second: U46C U104C
The self-cleavage of the first is lower: 0.79 for the first, 1.96 for the second.

First: U46C A69G
Second: U46C A69C
The self-cleavage of the first is higher: 0.85 for the first, 0 for the second.

Going from U46C A69U to U46C C101U, the self-cleavage rises from 0.07 to 2.71.

Going from U47A A107G to U46C U62A, the self-cleavage falls from 0.95 to 0.05.

First: U46C U87C
Second: U46C U87A
The self-cleavage of the first is higher: 0.43 for the first, 0.13 for the second.

Going from U45A U73C to U45A U73A, the self-cleavage rises from 1.32 to 1.91.

Compared with U45A U104C, U45A A140G is lower in self-cleavage: 1.77 for the first, 1.32 for the second.

Going from U45C A77C to U45C A77U, the self-cleavage rises from 1.15 to 1.29.

First: U46A U108C
Second: G44U U130A
The self-cleavage of the first is lower: 1.37 for the first, 1.99 for the second.

Going from U46C G93A to U45C C99U, the self-cleavage rises from 0.07 to 1.07.

Going from U45C G82A to U46A U73C, the self-cleavage falls from 1.86 to 1.5.

In the case of U46A U73A, the self-cleavage is reported as 1.35.
